Data taken from patent publication US7132278B2, “PAS kinase” (Board of Regents, The University of Texas System, priority 2001, dated 2006).
Residue numbers refer to the chain shown, from its start. Numbers in names are those of the source.

B1: PASK ΔN: truncated human PASK variant lacking both PAS domains, 948 amino-terminal residues removed, His6 tag (protein)
chain: SLPGSTHSTAAELTGPSLVEVLRARPWFEEPPKAVELEGLAACEGEYSQKYSTMSPLGSGAFGFVWTAVDKEKNKEVVVKFIKKEKVLEDCWIEDPKLGKVTLEIAILSRVEHANIIKVLDIFENQGFFQLVMEKHGSGLDLFAFIDRHPRLDEPLASYIFRQLVSAVGYLRLKDIIHRDIKDENIVIAEDFTIKLIDFGSAAYLERGKLFYTFCGTIEYCAPEVLMGNPYRGPELEMWSLGVTLYTLVFEENPFCELEETVEAAIHPPYLVSKELMSLVSGLLQPVPERRTTLEKLVTDPWVTQPVNLADYTWEEVCRVNKPESGVLSAASLEMGNRSLSDVAQAQELCGGPVPGEAPNGQGCLHPGDPRLLTS
modifications: left off: small tags and cut ends
notes: truncated human PASK variant lacking both PAS domains, 948 amino-terminal residues removed, His6 tag
B2: S1287,89A: PASK mutant, serine residues 1287 and 1289 changed to alanine (protein)
chain: MEDGGLTAFEEDQRCLSQSLPLPVSAEGPAAQTTAEPSRSFSSAHRHLSRRNGLSRLCQSRTALSEDRWSSYCLSSLAAQNICTSKLHCPAAPEHTDPSEPRGSVSCCSLLRGLSSGWSSPLLPAPVCNPNKAIFTVDAKTTEILVANDKACGLLGYSSQDLIGQKLTQFFLRSDSDVVEALSEEHMEADGHAAVVFGTVVDIISRSGEKIPVSVWMKRMRQERRLCCVVVLEPVERVSTWVAFQSDGTVTSCDSLFAHLHGYVSGEDVAGQHITDLIPSVQLPPSGQHIPKNLKIQRSVGRARDGTTFPLSLKLKSQPSSEEATTGEAAPVSGYRASVWVFCTISGLITLLPDGTIHGINHSFALTLFGYGKTELLGKNITFLIPGFYSYMDLAYNSSLQLPDLASCLDVGNESGCGERTLDPWQGQDPAEGGQDPRINVVLAGGHVVPRDEIRKLMESQDIFTGTQTELIAGGQLLSCLSPQPAPGVDNVPEGSLPVHGEQALPKDQQITALGREEPVAIESPGQDLLGESRSEPVDVKPFASCEDSEAPVPAEDGGSDAGMCGLCQKAQLERMGVSGPSGSDLWAGAAVAKPQAKGQLAGGSLLMHCPCYGSEWGLWWRSQDLAPSPSGMAGLSFGTPTLDEPWLGVENDREELQTCLIKEQLSQLSLAGALDVPHAELVPTECQAVTAPVSSCDLGGRDLCGGCTGSSSACYALATDLPGGLEAVEAQEVDVNSFSWNLKELFFSDQTDQTSSNCSCATSELRETPSSLAVGSDPDVGSLQEQGSCVLDDRELLLLTGTCVDLGQGRRFRESCVGHDPTEPLEVCLVSSEHYAASDRESPGHVPSTLDAGPEDTCPSAEEPRLNVQVTSTPVIVMRGAAGLQREIQEGAYSGSCHHRDGLRLSIQFEVRRVELQGPTPLFCCWLVKDLLHSQRDSAARTRLFLASLPGSTHSTAAELTGPSLVEVLRARPWFEEPPKAVELEGLAACEGEYSQKYSTMSPLGSGAFGFVWTAVDKEKNKEVVVKFIKKEKVLEDCWIEDPKLGKVTLEIAILSRVEHANIIKVLDIFENQGFFQLVMEKHGSGLDLFAFIDRHPRLDEPLASYIFRQLVSAVGYLRLKDIIHRDIKDENIVIAEDFTIKLIDFGSAAYLERGKLFYTFCGTIEYCAPEVLMGNPYRGPELEMWSLGVTLYTLVFEENPFCELEETVEAAIHPPYLVSKELMSLVSGLLQPVPERRTTLEKLVTDPWVTQPVNLADYTWEEVCRVNKPESGVLSAASLEMGNRALADVAQAQELCGGPVPGEAPNGQGCLHPGDPRLLTS
modifications: left off: small tags and cut ends
notes: PASK mutant, serine residues 1287 and 1289 changed to alanine
B3: S1149A: PASK mutant, serine residue 1149 changed to alanine (protein)
chain: B2 chain with S1149A, A1287S, A1289S
modifications: left off: small tags and cut ends
notes: PASK mutant, serine residue 1149 changed to alanine
B4: wildtype: His6-tagged human PASK enzyme expressed in baculovirus-infected Sf-9 cells (protein)
chain: B2 chain with A1287S, A1289S
modifications: left off: small tags and cut ends
notes: His6-tagged human PASK enzyme expressed in baculovirus-infected Sf-9 cells
B5: S1273-1289A: PASK mutant, all five serines simultaneously changed to alanine (protein)
chain: B2 chain with S1273A, S1277A, S1280A
modifications: left off: small tags and cut ends
notes: PASK mutant, all five serines simultaneously changed to alanine

Columns and labels:
Assay in all cases: PASK kinase assay, 32P incorporation into AMARA peptide substrate
[1] = target: T1, AMARA peptide (Homo sapiens, UniProt Q96RG2, F1266C); type: biochemical; details: truncated variant vs native enzyme
T1 construct: Compounds are checked for effects on both full length and truncated versions of PASK; His6 (N); made in house; host or cells: baculovirus-infected Sf-9 insect cells
Description: (§1) Biochemical properties of the Pask enzyme. A recombinant baculovirus was engineered to overexpress human PASK enzyme in cultured insect cells. The enzyme was expressed as a fusion with a His6 tag at its amino terminus such that the recombinant polypeptide could be purified by Ni-affinity chromatography. Routine enzyme preparations were harvested from 0.8 liter of cultured Sf-9 cells. Cells were lysed by dounce homogenization in 50 mM Tris-HCl, pH 8.0, 100 mM NaCl, 0.04% β-mercaptoethanol (“lysis buffer”) and spun at 100,000×G for one hour to remove insoluble debris. Soluble material (˜50 ml) was then applied to a 3 ml bed volume of Ni-affinity resin. Following application and 50× column volume wash, bound material was eluted with storage buffer (50 mM HEPES, pH 7.4, 100 mM NaCl, 1 mM DTT, 1 mM EDTA) supplemented with 250 mM imidazole. Eluted material was sequentially subjected to Mono-Q, anion-exchange chromatography, and eluted with increasing NaCl concentration. Fractions were evaluated by SDS-PAGE to identify PASK enriched fractions, pooled and dialyzed against storage buffer supplemented with 10% glycerol. Typical enzyme preparations yield 0.5 mg of intact PASK enzyme judged to be greater than 95% pure by visual inspection of Coomassie-stained SDS-PAGE gels.
(§2) Kinetic data were used to characterize the activities of PASK enzyme samples derived without modification from baculovirus and following pre-phosphorylation in the presence of ATP. Enzyme activity was monitored using a synthetic substrate bearing the sequence NH2-[…]-CO2H (AMARA peptide, SEQ ID NO:9). The serine residue in this peptide is known to be phosphorylated by both AMPK and Snf1 [2], both of which are exceedingly similar in primary amino acid sequence to the catalytic domain of PASK. The three arginine residues located at the carboxyl terminus of the AMARA peptide allow avid binding to phosphocellulose paper, thereby facilitating quantitation of ^32P incorporation catalyzed by PASK from [γ-^32P]ATP. […] Moreover, lambda phosphatase treatment generated an enzyme which had 7-fold lower activity than the unmodified enzyme, and this treatment was fully reversible by allowing the enzyme to autophosphorylate in the presence of ATP.
(§3) PASK concentrations (0.5–2 μg/ml) were determined to have linear rates with respect to protein concentration and time. Kinetic constants were determined using peptide substrate concentrations between 0.06–1 mM. The data were fit to a non-linear Michaelis-Menten equation using the GraphPad Prism 2.0 program. Vmax values given are μmol/min/mg. NS indicates an SE less than 0.05.

[2] = test system: AMARA peptide; type: biochemical, human; details: Pre-phosphorylated enzyme; for Vmax: peptide substrate; for Km: peptide substrate 0.06–1 mM
Description: as §1, §2, §3

[3] = target: T2, AMARA peptide (Homo sapiens, UniProt Q96RG2, F1266C/Y899H); type: biochemical; details: Untreated enzyme
T2 construct: Compounds are checked for effects on both full length and truncated versions of PASK; His6 (N); made in house; host or cells: baculovirus-infected Sf-9 insect cells
Description: as §1, §2, §3

T2 sequence (Q96RG2 whole entry Y899H/F1266C, the tested form may be a part): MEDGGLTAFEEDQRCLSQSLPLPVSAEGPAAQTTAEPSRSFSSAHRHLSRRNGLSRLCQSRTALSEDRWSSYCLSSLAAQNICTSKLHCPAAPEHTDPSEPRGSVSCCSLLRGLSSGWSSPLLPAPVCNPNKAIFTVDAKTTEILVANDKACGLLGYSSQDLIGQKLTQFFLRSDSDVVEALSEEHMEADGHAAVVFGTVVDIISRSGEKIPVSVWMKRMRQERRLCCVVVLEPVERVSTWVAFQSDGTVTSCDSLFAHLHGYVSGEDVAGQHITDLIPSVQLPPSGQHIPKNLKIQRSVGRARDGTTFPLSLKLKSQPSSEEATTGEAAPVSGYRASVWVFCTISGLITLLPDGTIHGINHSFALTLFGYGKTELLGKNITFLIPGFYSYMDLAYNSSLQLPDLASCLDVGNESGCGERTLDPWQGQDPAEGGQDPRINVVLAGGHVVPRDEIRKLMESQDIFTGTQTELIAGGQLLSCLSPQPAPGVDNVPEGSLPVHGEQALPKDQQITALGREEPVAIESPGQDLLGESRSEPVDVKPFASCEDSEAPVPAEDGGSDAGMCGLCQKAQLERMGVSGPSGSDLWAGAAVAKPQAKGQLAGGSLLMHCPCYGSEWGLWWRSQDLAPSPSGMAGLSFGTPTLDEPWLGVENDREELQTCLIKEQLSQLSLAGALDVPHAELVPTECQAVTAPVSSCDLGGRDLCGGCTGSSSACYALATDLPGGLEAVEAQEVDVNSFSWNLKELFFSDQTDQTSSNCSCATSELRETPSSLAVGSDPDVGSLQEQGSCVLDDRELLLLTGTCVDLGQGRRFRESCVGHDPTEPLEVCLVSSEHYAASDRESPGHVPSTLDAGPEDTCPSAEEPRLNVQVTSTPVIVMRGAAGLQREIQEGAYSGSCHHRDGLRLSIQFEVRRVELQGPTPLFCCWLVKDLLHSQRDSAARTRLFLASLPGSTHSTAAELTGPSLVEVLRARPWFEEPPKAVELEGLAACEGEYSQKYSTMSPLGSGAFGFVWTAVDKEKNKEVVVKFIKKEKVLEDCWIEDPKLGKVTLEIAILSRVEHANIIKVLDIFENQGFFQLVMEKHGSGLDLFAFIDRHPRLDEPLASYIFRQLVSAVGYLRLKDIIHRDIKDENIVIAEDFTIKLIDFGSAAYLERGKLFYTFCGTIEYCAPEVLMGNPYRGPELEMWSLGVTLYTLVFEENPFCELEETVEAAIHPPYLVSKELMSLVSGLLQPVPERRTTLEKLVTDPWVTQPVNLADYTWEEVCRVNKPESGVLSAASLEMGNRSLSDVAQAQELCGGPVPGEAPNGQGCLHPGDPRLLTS

| Molecule | catalytic rate constant (Vmax) higher than the native enzyme [1] | Vmax [2] | Km [2] | Vmax ([3]; peptide substrate) | Km ([3]; peptide substrate 0.06–1 mM) |
| --- | --- | --- | --- | --- | --- |
| B1 | 18 fold | 2.8 µmol/min/mg | 300 µM | – | – |
| B2 | – | 0.1 µmol/min/mg | 200 µM | – | – |
| B3 | – | 0.1 µmol/min/mg | 600 µM | – | – |
| B4 | – | 0.2 µmol/min/mg | 200 µM | 0.1 µmol/min/mg | 1300 µM |
| B5 | – | 0.1 µmol/min/mg | 200 µM | – | – |
